Data: patent publication US20090074722A1, “Products and methods for treating PTP lar diseases” (MAX-PLANCK-GESELLSCHAFT ZUR, priority 1999, published 2009)

Target: T1, β-catenin (Homo sapiens, UniProt P35222)
T1 construct: expressed in transfected cells; host or cells: human embryonic kidney 293 cells, transient, pervanadate-treated, used as lysate; the GST-PTP LARi partner was made in E. coli
T1 sequence (P35222 2-781): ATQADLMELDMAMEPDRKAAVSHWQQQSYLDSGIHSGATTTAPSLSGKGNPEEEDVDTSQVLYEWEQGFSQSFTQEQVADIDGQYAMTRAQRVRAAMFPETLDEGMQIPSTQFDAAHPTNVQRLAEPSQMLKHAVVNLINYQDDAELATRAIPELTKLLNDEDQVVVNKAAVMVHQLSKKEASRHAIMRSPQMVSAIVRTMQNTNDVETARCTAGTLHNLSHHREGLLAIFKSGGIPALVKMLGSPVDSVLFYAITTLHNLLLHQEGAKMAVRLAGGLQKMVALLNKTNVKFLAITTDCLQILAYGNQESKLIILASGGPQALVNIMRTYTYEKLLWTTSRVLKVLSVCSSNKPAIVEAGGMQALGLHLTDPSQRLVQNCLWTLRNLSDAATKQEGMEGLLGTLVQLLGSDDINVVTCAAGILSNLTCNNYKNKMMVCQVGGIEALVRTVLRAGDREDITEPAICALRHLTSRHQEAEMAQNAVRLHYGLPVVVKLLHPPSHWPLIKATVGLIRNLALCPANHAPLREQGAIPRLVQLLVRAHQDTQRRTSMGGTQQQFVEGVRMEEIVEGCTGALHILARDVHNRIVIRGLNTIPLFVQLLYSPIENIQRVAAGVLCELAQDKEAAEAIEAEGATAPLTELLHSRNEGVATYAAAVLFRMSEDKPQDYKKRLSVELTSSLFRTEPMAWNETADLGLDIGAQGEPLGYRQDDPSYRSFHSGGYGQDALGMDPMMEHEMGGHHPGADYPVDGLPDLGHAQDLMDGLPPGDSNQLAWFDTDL
Assay: In vitro binding assay (GST pull-down), β-catenin
Conditions: lysates of pervanadate treated 293 cells overexpressing β-catenin
Procedure: After 24 h of serum starvation, the cells were stimulated with pervanadate for 10 minutes before lysis. Equal amounts of lysats were incubated with the GST-PTP LAR cytoplasmic fusion protein (GST-PTP LARi) or a threefold molar excess of GST. Lysates of control vector transfected 293 cells were incubated with the GST-PTP LAR cytoplasmic fusion protein (GST-PTP LARi). Complexes were immobilized on glutathione-sepharose, and precipitates were separated by SDS-PAGE. Bound proteins were analyzed by Western blotting with an anti-β-catenin antibody (left) or an antibody against plakoglobin (right). Arrows indicate the proteins of interest. Molecular mass standards in kilodaltons are shown on the left. […]
To investigate the potential association of PTP LAR with the cadherin/catenin-complex in intact cells, subconfluent human MCF7 cells were stimulated with EGF, were lysed, and were immunoprecipitated with antibodies either against PTP LAR or the cadherin/catenin-complex. Western blotting analysis with specific antibodies to β-catenin and E-cadherin (FIG. 5A) or plakoglobin and E-cadherin (FIG. 5B) detected these proteins in anti-human PTP LAR immunoprecipitates with the monoclonal antibody 11.1A against the extracellular domain of human PTP LAR and vice versa. […]

B1: GST-PTP LAR cytoplasmic: GST fusion protein comprising the entire cytoplasmic domain (amino acids 1259-1881) of human PTP LAR (protein)
chain: PEMLWVTGPVLAVILIILIVIAILLFKRKRTHSPSSKDEQSIGLKDSLLAHSSDPVEMRRLNYQTPGMRDHPPIPITDLADNIERLKANDGLKFSQEYESIDPGQQFTWENSNLEVNKPKNRYANVIAYDHSRVILTSIDGVPGSDYINANYIDGYRKQNAYIATQGPLPETMGDFWRMVWEQRTATVVMMTRLEEKSRVKCDQYWPARGTETCGLIQVTLLDTVELATYTVRTFALHKSGSSEKRELRQFQFMAWPDHGVPEYPTPILAFLRRVKACNPLDAGPMVVHCSAGVGRTGCFIVIDAMLERMKHEKTVDIYGHVTCMRSQRNYMVQTEDQYVFIHEALLEAATCGHTEVPARNLYAHIQKLGQVPPGESVTAMELEFKLLASSKAHTSRFISANLPCNKFKNRLVNIMPYELTRVCLQPIRGVEGSDYINASFLDGYRQQKAYIATQGPLAESTEDFWRMLWEHNSTIIVMLTKLREMGREKCHQYWPAERSARYQYFVVDPMAEYNMPQYILREFKVTDARDGQSRTIRQFQFTDWPEQGVPKTGEGFIDFIGQVHKTKEQFGQDGPITVHCSAGVGRTGVFITLSIVLERMRYEGVVDMFQTVKTLRTQRPAM
For B1, the “association with β-catenin” value was “associate specifically”.
